For test [1], the target named is HAdV-5 virion (Ad75; source ATCC). The experiment in a line: radioligand binding; competition: soluble CAR-D1 preincubated with 35S-labelled virions for 1 h on ice before the virions were added to A549 cells; read-out is the cell-bound radioactivity; concentration of CAR-D1 not stated.
Test [2] concerns the target HAdV-52 virion (strain TB3-2243) (human adenovirus type 52 (HAdV-52)). The test is described as above.
In test [3] the target is 52SFK R316A/N318A (human adenovirus type 52 (HAdV-52)). The experiment in a line: gas-phase electrophoretic mobility molecular analysis (GEMMA); 20 mM ammonium acetate pH 7.8, 0.005% Tween 20; 0.05 mg/ml (52SFK wt, mutants 1-3) or 0.06 mg/ml (mutants 4-6).
Test [4] has as its target 52SFK N308E (human adenovirus type 52 (HAdV-52)). The description is as above.
For test [5], the target named is 52SFK N318A (human adenovirus type 52 (HAdV-52)). Described as above.
The target in test [6] is 52SFK R316A (human adenovirus type 52 (HAdV-52)). The description is as above.
Test [7] addresses 52SFK R316E (human adenovirus type 52 (HAdV-52)). Described as above.
Test [8] has as its target 52SFK R316E/N318A (human adenovirus type 52 (HAdV-52)). The test is described as above.
For test [9], the target named is HAdV-52 short fiber knob (human adenovirus type 52 (HAdV-52)). The experiment in a line: crystal structure; 52SFK crystals soaked with 20 mM 2-O-methyl sialic acid; 1.65 Å; threefold NCS.
Test [10] shares this target. The experiment in a line: gas-phase electrophoretic mobility molecular analysis (GEMMA); 20 mM ammonium acetate pH 7.8, 0.005% Tween 20; 0.05 mg/ml (52SFK wt, mutants 1-3) or 0.06 mg/ml (mutants 4-6).
Test [11] addresses Recombinant human CAR (CXADR Fc chimera; full length extracellular D1D2 domain) (human) (UniProt P78310). Description: SPR; CAR-D1D2 Fc chimera or CAR-D1 amine-coupled to CM5 (900-1100 RU); 52LFK or 52SFK as analytes, two-fold series 8 nM to 2 μM; 25°C; HBS-EP+ (10 mM HEPES, 150 mM NaCl, 3 mM EDTA, 0.005% P20, pH 7.4); Biacore T100.
The target of the next test is soluble CAR-D1. The test is described as above.

The values below come from article PMC4335501.

Sequence of Recombinant human CAR (CXADR Fc chimera; full length extracellular D1D2 domain) (human) (P78310 20-237, change not shown): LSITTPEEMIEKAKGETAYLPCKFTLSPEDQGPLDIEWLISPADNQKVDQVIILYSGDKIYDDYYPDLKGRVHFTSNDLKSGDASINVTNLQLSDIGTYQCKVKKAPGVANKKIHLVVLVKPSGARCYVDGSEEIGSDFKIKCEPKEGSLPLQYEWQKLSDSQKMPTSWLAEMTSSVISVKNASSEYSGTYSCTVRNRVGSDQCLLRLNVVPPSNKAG

Regarding soluble CAR-D1 (domain or fragment), the results for the percent reduction of virion binding to A549 cells in [1] and in [2] were 50% and 20%, respectively.
52SFK R316A/N318A (domain or fragment): the stoichiometry N in test [3] was found to be 3.
52SFK N308E (domain or fragment): the stoichiometry N in test [4] was found to be 3.
52SFK N318A (domain or fragment) registered a stoichiometry N in test [5] of 3.
With 52SFK R316A (domain or fragment), the stoichiometry N in [6] is 3.
Turning to 52SFK R316E (domain or fragment), the stoichiometry N in [7] is 3.
The substance 52SFK R316E/N318A (domain or fragment) had a stoichiometry N in test [8] of 3.
As for “HAdV-52 short fiber knob (domain or fragment)”, the stoichiometry N in test [9] and in test [10] was 3 in each case.
For the substance “HAdV-52 long fiber knob (domain or fragment)”, the results for the Kd (in test [11]; in the test with soluble CAR-D1) were 5 nM and 2.6 nM, respectively.

As a reminder, the stoichiometry N is a count of units in the complex or per binding partner. For orientation: Kd means the equilibrium constant for the complex coming apart.
